The values that follow come from paper PMC11897156, “Ex.50.T aptamer impairs tumor–stroma cross-talk in breast cancer by targeting gremlin-1”.

The target in series [1] is T1, Gremlin-1 (recombinant) (UniProt O60565 25-184).
T1 sequence: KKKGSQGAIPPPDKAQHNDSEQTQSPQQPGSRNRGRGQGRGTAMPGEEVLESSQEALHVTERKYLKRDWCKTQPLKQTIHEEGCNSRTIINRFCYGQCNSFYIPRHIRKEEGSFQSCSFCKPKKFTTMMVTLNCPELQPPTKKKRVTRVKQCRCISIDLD
As to the kind of experiment: SPR; GREM1 immobilized, aptamer 0.062-1 uM, 25 C; kon 3.39e4 M-1 s-1, koff 1.58e-3 s-1; Aptamer refolded 85 C 5 min, 4 C 2 min, 37 C 10 min; ELONA: PBS, 3% BSA block, 1 h; pull-down: 10 mM PBS with Ca2+ and Mg2+, room temperature; SPR at 25 C (buffer not in material); cell binding: serum-free medium, 37 C, 30 min. The conditions noted are these: protein: commercial; chain copies: 2; label: biotin (ELONA, pull-down); none stated for SPR; hairpin; predicted stem of 11 bp, 2 internal loops, 1 terminal loop.

The target in series [2] is T1, Gremlin-1 (recombinant). As to the kind of experiment: ELONA; apparent Kd; unit inferred, nM implied by agreement with SPR; GREM1 coated, 200 nM aptamer; Aptamer refolded 85 C 5 min, 4 C 2 min, 37 C 10 min; ELONA: PBS, 3% BSA block, 1 h; pull-down: 10 mM PBS with Ca2+ and Mg2+, room temperature; SPR at 25 C (buffer not in material); cell binding: serum-free medium, 37 C, 30 min. The conditions noted are these: protein: commercial; chain copies: 2; label: biotin (ELONA, pull-down); none stated for SPR; hairpin; predicted stem of 11 bp, 2 internal loops, 1 terminal loop.

B1: ex.50.T (structured_RNA)
RNA: UGUGGCAGUUAAGAAUAGAUCUUCGCUGCGAUU
modifications: lowercase u/c in printed sequence probably 2'-F pyrimidines (not stated in material)
Consider B1, for which the Kd with Gremlin-1 (recombinant) [1] was 46.7 nM; with Gremlin-1 (recombinant) [2], 37.7 nM.
